Reference: article PMC2756588

T1: Abp1, P15891
T1 sequence (P15891 535-592, looked up): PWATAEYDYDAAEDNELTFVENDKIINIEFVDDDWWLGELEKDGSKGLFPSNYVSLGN

T2: Bbc1, P47068
T2 sequence (P47068 1-78, looked up): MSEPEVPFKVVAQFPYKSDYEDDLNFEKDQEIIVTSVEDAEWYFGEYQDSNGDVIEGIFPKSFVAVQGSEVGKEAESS

T3: Boi1, P38041
T3 sequence (P38041 1-86, looked up): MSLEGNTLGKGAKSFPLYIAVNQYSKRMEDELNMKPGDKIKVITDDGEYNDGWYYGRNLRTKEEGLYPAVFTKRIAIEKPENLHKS

T4: Boi2, P39969
T4 sequence (P39969 32-116, looked up): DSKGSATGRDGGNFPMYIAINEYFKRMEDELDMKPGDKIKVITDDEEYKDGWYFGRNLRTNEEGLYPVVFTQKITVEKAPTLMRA

T5: Bud14, P27637
T5 sequence (P27637 247-328, looked up): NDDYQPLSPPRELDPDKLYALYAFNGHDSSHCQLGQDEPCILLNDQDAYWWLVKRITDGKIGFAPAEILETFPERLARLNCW

T6: Bzz1-1, P38822
T6 sequence (P38822 478-572, looked up): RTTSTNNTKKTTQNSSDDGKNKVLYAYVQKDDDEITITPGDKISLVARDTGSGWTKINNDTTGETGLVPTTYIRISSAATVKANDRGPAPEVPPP

T7: Bzz1-2, P38822
T7 sequence (P38822 568-633, looked up): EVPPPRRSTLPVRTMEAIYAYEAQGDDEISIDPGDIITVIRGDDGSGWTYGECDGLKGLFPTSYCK

T8: Cdc25, P04821
T8 sequence (P04821 50-136, looked up): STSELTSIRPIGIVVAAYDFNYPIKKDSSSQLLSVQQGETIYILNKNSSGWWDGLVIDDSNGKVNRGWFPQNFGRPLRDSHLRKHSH

T9: Cyk3, Q07533
T9 sequence (Q07533 1-83, looked up): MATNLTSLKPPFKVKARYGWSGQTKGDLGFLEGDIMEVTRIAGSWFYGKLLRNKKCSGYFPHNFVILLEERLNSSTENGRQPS

T10: Fus1, P11710
T10 sequence (P11710 432-512, looked up): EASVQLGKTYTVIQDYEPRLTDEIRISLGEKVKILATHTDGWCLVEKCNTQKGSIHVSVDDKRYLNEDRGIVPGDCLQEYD

T11: Hof1, Q05080
T11 sequence (Q05080 590-669, looked up): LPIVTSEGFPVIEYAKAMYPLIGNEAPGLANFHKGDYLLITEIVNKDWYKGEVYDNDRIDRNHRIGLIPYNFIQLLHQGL

T12: Hse1, P38753
T12 sequence (P38753 208-285, looked up): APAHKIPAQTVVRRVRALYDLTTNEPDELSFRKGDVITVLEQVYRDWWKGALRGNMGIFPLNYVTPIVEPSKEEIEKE

T13: Lsb1, P53281
T13 sequence (P53281 45-122, looked up): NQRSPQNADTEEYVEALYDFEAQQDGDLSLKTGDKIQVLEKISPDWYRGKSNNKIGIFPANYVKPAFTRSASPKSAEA

T14: Lsb3, P43603
T14 sequence (P43603 385-451, looked up): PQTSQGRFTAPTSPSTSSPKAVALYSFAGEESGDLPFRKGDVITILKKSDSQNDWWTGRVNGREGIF

T15: Lsb4, P32793
T15 sequence (P32793 402-468, looked up): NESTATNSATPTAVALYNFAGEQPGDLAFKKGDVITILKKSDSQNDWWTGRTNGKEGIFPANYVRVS

T16: Myo5, Q04439
T16 sequence (Q04439 1072-1160, looked up): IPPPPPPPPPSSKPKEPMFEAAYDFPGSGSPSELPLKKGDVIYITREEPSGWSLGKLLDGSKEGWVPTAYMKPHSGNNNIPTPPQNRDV

T17: Nbp2, Q12163
T17 sequence (Q12163 103-180, looked up): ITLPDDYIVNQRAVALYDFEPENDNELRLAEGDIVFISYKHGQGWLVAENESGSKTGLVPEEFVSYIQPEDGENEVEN

T18: Pex13, P80667
T18 sequence (P80667 295-386, looked up): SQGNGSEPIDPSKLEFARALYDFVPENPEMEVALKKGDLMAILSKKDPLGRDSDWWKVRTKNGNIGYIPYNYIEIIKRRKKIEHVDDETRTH

T19: Pin3, Q06449
T19 sequence (Q06449 53-122, looked up): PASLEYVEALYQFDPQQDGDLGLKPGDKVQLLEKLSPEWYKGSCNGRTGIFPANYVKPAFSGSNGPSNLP

T20: Sla1-2, P32790
T20 sequence (P32790 60-140, looked up): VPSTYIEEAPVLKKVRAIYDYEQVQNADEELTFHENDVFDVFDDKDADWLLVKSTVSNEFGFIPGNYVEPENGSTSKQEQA

T21: Sla1-3, P32790
T21 sequence (P32790 344-424, looked up): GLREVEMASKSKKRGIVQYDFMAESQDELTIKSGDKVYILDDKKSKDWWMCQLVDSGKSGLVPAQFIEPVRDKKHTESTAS


Experiments:
Assay in all cases: SPOT array
Abp1, P15891 = target: T1, Abp1, P15891; conditions: median of control spots 935
Bbc1, P47068 = target: T2, Bbc1, P47068; conditions: median of control spots 796
Bem1-1, P29366 = conditions: median of control spots 4282
Bem1-1, P29366, sequence (P29366 55-141): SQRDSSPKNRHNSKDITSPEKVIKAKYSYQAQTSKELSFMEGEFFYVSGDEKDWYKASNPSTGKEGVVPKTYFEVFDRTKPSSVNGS

Bem1-2, P29366 = conditions: median of control spots 4347
Bem1-2, P29366, sequence (P29366 139-227): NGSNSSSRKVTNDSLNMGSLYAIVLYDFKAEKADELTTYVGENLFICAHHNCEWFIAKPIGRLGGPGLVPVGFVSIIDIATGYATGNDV

Boi1, P38041 = target: T3, Boi1, P38041; conditions: median of control spots 1162
Boi2, P39969 = target: T4, Boi2, P39969; conditions: median of control spots 1161
Bud14, P27637 = target: T5, Bud14, P27637; conditions: median of control spots 956
Bzz1-1, P38822 = target: T6, Bzz1-1, P38822; conditions: median of control spots 4446
Bzz1-2, P38822 = target: T7, Bzz1-2, P38822; conditions: median of control spots 4538
Cdc25, P04821 = target: T8, Cdc25, P04821; conditions: median of control spots 969
Cyk3, Q07533 = target: T9, Cyk3, Q07533; conditions: median of control spots 1451
Fus1, P11710 = target: T10, Fus1, P11710; conditions: median of control spots 1200
GST = conditions: median of control spots 978
Hof1, Q05080 = target: T11, Hof1, Q05080; conditions: median of control spots 4086
Hse1, P38753 = target: T12, Hse1, P38753; conditions: median of control spots 1727
Lsb1, P53281 = target: T13, Lsb1, P53281; conditions: median of control spots 388
Lsb3, P43603 = target: T14, Lsb3, P43603; conditions: median of control spots 406
Lsb4, P32793 = target: T15, Lsb4, P32793; conditions: median of control spots 397
Myo3, P36006 = conditions: median of control spots 468
Myo5, Q04439 = target: T16, Myo5, Q04439; conditions: median of control spots 471
Nbp2, Q12163 = target: T17, Nbp2, Q12163; conditions: median of control spots 357
Pex13, P80667 = target: T18, Pex13, P80667; conditions: median of control spots 1341
Pin3, Q06449 = target: T19, Pin3, Q06449; conditions: median of control spots 2171
Rvs167, P39743 = conditions: median of control spots 2707
Rvs167, P39743, sequence (P39743 419-482): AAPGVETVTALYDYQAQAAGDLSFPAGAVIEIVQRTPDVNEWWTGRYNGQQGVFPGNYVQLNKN

Sho1, P40073 = conditions: median of control spots 1148
Sho1, P40073, sequence (P40073 287-367): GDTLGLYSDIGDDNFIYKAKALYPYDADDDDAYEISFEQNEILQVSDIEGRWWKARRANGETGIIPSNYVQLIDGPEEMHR

Sla1-2, P32790 = target: T20, Sla1-2, P32790; conditions: median of control spots 712
Sla1-3, P32790 = target: T21, Sla1-3, P32790; conditions: median of control spots 5475

Row | Binder | SPOT intensity (Abp1, P15891) | SPOT intensity (Bbc1, P47068) | SPOT intensity (Bem1-1, P29366) | SPOT intensity (Bem1-2, P29366) | SPOT intensity (Boi1, P38041) | SPOT intensity (Boi2, P39969) | SPOT intensity (Bud14, P27637) | SPOT intensity (Bzz1-1, P38822) | SPOT intensity (Bzz1-2, P38822) | SPOT intensity (Cdc25, P04821) | SPOT intensity (Cyk3, Q07533) | SPOT intensity (Fus1, P11710) | SPOT intensity (GST) | SPOT intensity (Hof1, Q05080) | SPOT intensity (Hse1, P38753) | SPOT intensity (Lsb1, P53281) | SPOT intensity (Lsb3, P43603) | SPOT intensity (Lsb4, P32793) | SPOT intensity (Myo3, P36006) | SPOT intensity (Myo5, Q04439) | further results
1 | LLLLFVPDSPYDPAI | 0 | 0 | 0 | 0 | 1 | 0 | 3 | 0 | 0 | 0 | 0 | 1 | 1 | 0 | 0 | 0 | 0 | 0 | 0 | 0 | SPOT intensity (Nbp2, Q12163): 1; SPOT intensity (Pex13, P80667): 0; SPOT intensity (Pin3, Q06449): 0; SPOT intensity (Rvs167, P39743): 0; SPOT intensity (Sho1, P40073): 0; SPOT intensity (Sla1-2, P32790): 0; SPOT intensity (Sla1-3, P32790): 2
2 | HGKRRAPLLLAKLDV | 79 | 17 | 0 | 0 | 0 | 0 | 14 | 0 | 1 | 7 | 0 | 0 | 1 | 0 | 0 | 0 | 0 | 4 | 5 | 0 | SPOT intensity (Nbp2, Q12163): 1; SPOT intensity (Pex13, P80667): 5; SPOT intensity (Pin3, Q06449): 9; SPOT intensity (Rvs167, P39743): 0; SPOT intensity (Sho1, P40073): 85; SPOT intensity (Sla1-2, P32790): 0; SPOT intensity (Sla1-3, P32790): 1
3 | VLRFLGFPLPIFEKG | 19 | 30 | 0 | 2 | 1 | 1 | 17 | 0 | 0 | 28 | 7 | 78 | 0 | 4 | 6 | 0 | 0 | 0 | 1 | 0 | SPOT intensity (Nbp2, Q12163): 41; SPOT intensity (Pex13, P80667): 4; SPOT intensity (Pin3, Q06449): 3; SPOT intensity (Rvs167, P39743): 0; SPOT intensity (Sho1, P40073): 43; SPOT intensity (Sla1-2, P32790): 0; SPOT intensity (Sla1-3, P32790): 0

Continued, in another order:

Row | SPOT intensity (Abp1, P15891) | SPOT intensity (Bbc1, P47068) | SPOT intensity (Bem1-1, P29366) | SPOT intensity (Bem1-2, P29366) | SPOT intensity (Boi1, P38041) | SPOT intensity (Boi2, P39969) | SPOT intensity (Bud14, P27637) | SPOT intensity (Bzz1-1, P38822) | SPOT intensity (Bzz1-2, P38822) | SPOT intensity (Cdc25, P04821) | SPOT intensity (Cyk3, Q07533) | SPOT intensity (Fus1, P11710) | SPOT intensity (GST) | SPOT intensity (Hof1, Q05080) | SPOT intensity (Hse1, P38753) | SPOT intensity (Lsb1, P53281) | SPOT intensity (Lsb3, P43603) | SPOT intensity (Lsb4, P32793) | SPOT intensity (Myo3, P36006) | SPOT intensity (Myo5, Q04439) | Binder | further results
4 | 16 | 0 | 0 | 0 | 2 | 0 | 14 | 3 | 1 | 16 | 0 | 3 | 0 | 0 | 0 | 0 | 0 | 4 | 5 | 0 | GERSRPLVISILSSA | SPOT intensity (Nbp2, Q12163): 2; SPOT intensity (Pex13, P80667): 39; SPOT intensity (Pin3, Q06449): 26; SPOT intensity (Rvs167, P39743): 0; SPOT intensity (Sho1, P40073): 38; SPOT intensity (Sla1-2, P32790): 1; SPOT intensity (Sla1-3, P32790): 0
5 | 28 | 12 | 0 | 43 | 6 | 0 | 12 | 0 | 3 | 28 | 1 | 159 | 1 | 48 | 91 | 0 | 0 | 0 | 4 | 0 | RLSFFFPLDPAYIRN | SPOT intensity (Nbp2, Q12163): 21; SPOT intensity (Pex13, P80667): 21; SPOT intensity (Pin3, Q06449): 13; SPOT intensity (Rvs167, P39743): 0; SPOT intensity (Sho1, P40073): 68; SPOT intensity (Sla1-2, P32790): 0; SPOT intensity (Sla1-3, P32790): 113
6 | 18 | 69 | 1 | 61 | 6 | 0 | 21 | 3 | 3 | 21 | 3 | 100 | 0 | 116 | 126 | 0 | 0 | 4 | 4 | 0 | LTRRFPFLFPFDTRM | SPOT intensity (Nbp2, Q12163): 16; SPOT intensity (Pex13, P80667): 16; SPOT intensity (Pin3, Q06449): 18; SPOT intensity (Rvs167, P39743): 0; SPOT intensity (Sho1, P40073): 57; SPOT intensity (Sla1-2, P32790): 1; SPOT intensity (Sla1-3, P32790): 129
